Patent publication US12616711B2, “Therapeutic dendrimer” (Starpharma Pty Ltd, priority 2019, dated 2026)

Key:
[1] = tested on: CAPAN-1 tumour xenografts; experiment: CAPAN-1 mouse xenograft, alone or with Abraxane or DEP-DTX (Examples 13a, 13b); format: in vivo
Description: Mice were inoculated and tumours sized as described above. On day nineteen after implantation, mice with similar sized tumours (mean tumour volume 100 mm^3) were randomised into 7 groups of 10 animals. […] Abraxane® was dissolved in saline solution immediately prior to dosing.
Abraxane®, gemcitabine and dendrimers were administered at days 1, 10, and 17 via tail vein i.v. injection, at 0.1 ml/10 g body weight.
In an extension of Example 13a, two additional groups of mice were prepared and dosed to assess the anti-tumour efficacy properties of a taxane-dendrimer combined with a nucleoside analogue-dendrimer (e.g. 6). Mice were inoculated and tumours sized as described above.
Dendrimers were administered weekly via tail vein i.v. injection, at 0.1 ml/10 g body weight for 3 weeks.
All statistical analyses were performed using GraphPad Prism 8.1.

[2] = tested on: OVCAR-3 (human Ovarian Carcinoma cell line) mouse xenograft; experiment: OVCAR-3 mouse xenograft, alone or with Carboplatin (Example 16); format: in vivo; details: 3 at 4 mg/kg and 6 mg/kg weekly; Carboplatin 40 mg/kg weekly in combination; 3 weeks i.v.
Description: An OVCAR-3 (human Ovarian Carcinoma cell line) mouse xenograft cancer model was used to assess the anti-tumour efficacy properties of 3 alone or in combination with Carboplatin, compared to Gemcitabine, alone or in combination with Carboplatin. NSG Mice were inoculated and tumours sized as described above. On day twenty nine after implantation, mice with similar sized tumours (mean tumour volume 100 mm^3) were randomised into 10 groups of 10 animals. Gemcitabine and 3 were prepared as described above. DBLCarboplatin (Hospira) was dissolved in saline solution and further diluted in 5% glucose immediately prior to dosing.
Gemcitabine was administered twice weekly and dendrimers and carboplatin were administered weekly for 3 weeks via tail vein i.v. injection, at 0.1 ml/10 g body weight.

[3] = tested on: CAPAN-1 tumour xenografts; experiment: CAPAN-1 mouse xenograft, two conjugates (Example 14); format: in vivo; details: 3 at 6 mg/kg weekly, 6 at 5 mg/kg weekly, Gemcitabine 120 mg/kg twice weekly, 3 weeks i.v.
Description: A CAPAN-1 (human pancreatic adenocarcinoma cell line) mouse xenograft pancreatic cancer model was used to assess the anti-tumour efficacy properties of 3 and 6. NSG (NOD-SCID Interleukin-2 receptor gamma chain null) mice were inoculated and tumours sized as described above. On day 24 after implantation, mice with similar sized tumours (mean tumour volume 100 mm^3) were randomised into four groups of 10 animals for each tumour type. Gemcitabine, 3 and 6 were prepared as described above.
Gemcitabine was administered twice weekly and dendrimers were administered weekly for 3 weeks via tail vein i.v. injection, at 0.1 ml/10 g body weight.

A549 cells = experiment: alamarBlue viability assay, GI50; format: cell-based, human; details: 72 h, given in μM Gemcitabine
Description: (§1) A study was carried out to determine the ability of example dendrimers to inhibit growth of cancer cell lines using an alamarBlue viability assay (Thermo Fisher, DAL1025).
(§2) The cytotoxicity of compounds toward MDA-MB-231, A549, H460, BxPC3 and CAPAN-1 cells were evaluated for viability. Cells were seeded at a density of 1.2-5×10^3 cells, dependent on cell growth rate, in 96 well plates and incubated overnight. Cells were then treated with serial dilutions of test compositions for 72 h (MDA-MB-231, A549 and H460 lines) or 144 h (BxPC3 and CAPAN-1 lines). For cell viability analysis, 10% media volume of alamar Blue was added during the final 6-8 h of incubation. Reduction of alamarBlue in living cells yields a red fluorescent metabolite that can be read on a plate reader (560 nm excitation/610 nm emission.). Cell viability and subsequent GI50 values were was determined from the blank corrected dose-response curves, with 4-parameter nonlinear curve fit, in GraphPad Prism.

CAPAN-1 cells = experiment: alamarBlue viability assay, GI50; format: cell-based, human; details: 144 h, given in μM Gemcitabine
Description: as §1, §2

[4] = Gemcitabine release from dendrimers in citrate buffer; format: physicochemical; details: Citrate Buffer pH 4.5, 37° C.
Description: A study was carried out to determine the rate of gemcitabine release from dendrimer compounds in PBS and citrate buffer. Gemcitabine-conjugated dendrimers of the present disclosure, and a comparative example dendrimer, were each dissolved in PBS Buffer (2 mL, 10 mM, pH 7.4) or Citrate Buffer (2 mL, 0.1 M, pH 4.5) and held at 37° C. Samples were then analysed by injecting 5 μL of the solution on HPLC. At various time points, samples were analysed by HPLC. HPLC (C8 XBridge, 3×100 mm), gradient: 5% ACN/H2O (0-1 min), 5-80% ACN (1-7 min), 80% ACN (7-12 min), 80-5% ACN (12-13 min), 5% ACN (13-15 min), 243 nm, 10 mM ammonium formate buffer, 0.4 mL/min.

Plasma release study = format: in vitro ADME; details: 37° C.
Description: The plasma was placed in a CO2 incubator at 3% CO2 at 42% relative humidity to reach a pH of 7.4.
Gemcitabine HCl (28.5 mg) was dissolved in Milli Q water and the resulting stock solution transferred to a 5 mL volumetric flask and diluted to provide working standard solutions.
The plasma release study was conducted by adding 1 mL of plasma (centrifuged and filtered) to 0.2 mL of dendrimer solution (approximately 2 mg/mL gemcitabine equivalent in miliQ water) for example dendrimers and a comparator. The mixtures were vortexed (30 sec) then incubated at 37° C. 5% CO2. At various timepoints aliquots (0.1 mL) were removed and added to ACN (0.2 mL). The resulting mixtures were vortexed (30 s), centrifuged (10 min, 4° C.), filtered and analysed by HPLC (C8 Xbridge, 3×100 mm, […], 0.4 mL/min., gradient: 5% ACN/H2O) (0-1 min), 5-80% ACN (1-7 min), 80% ACN (7-12 min), 80-5% ACN (12-13 min), 5% ACN (13-15 min), 100 mM ammonium formate buffer, column temperature 50° C., sample tray 4° C., 260 nm.

## [BHA Lys][Lys]30[Lys]32 [Compound 3, [BHA Lys][Lys]30[Lys]32 [(α-NH-TDA-Gemcitabine)32 (ε-NHPEG˜2100)32]]
[1]; day 29
  anti-tumour efficacy compared to other groups at day 29: significantly more effective than Gemcitabine
[1]; day 29, i.v., Gemcitabine 120, Abraxane 40, 3 at 6.5, 6 at 5 (day 1) then 4, DEP-DTX 24 (10 in combination) mg/kg
  Tumour Growth inhibition (%) v vehicle at day 29: 103%
[1]; out to day 82
  anti-tumour efficacy compared to other groups over the dosing study (FIG. 6): more effective than Gemcitabine and also more effective than the combination of gemcitabine and Abraxane®
[2]
  anti-tumour efficacy compared to other groups (FIG. 9): more effective than Gemcitabine
[3]
  anti-tumour efficacy compared to other groups (FIG. 7): significantly more effective than Gemcitabine or 6
A549 cells
  GI50: 0.05 µM
CAPAN-1 cells
  GI50: 0.008 µM
[4]; 0 h
  % Gemcitabine released in citrate buffer: 0%
[4]; 0.08 h
  % Gemcitabine released in citrate buffer: 4.42%
[4]; 2 h
  % Gemcitabine released in citrate buffer: 5.21%
[4]; 4 h
  % Gemcitabine released in citrate buffer: 5.51%
[4]; 6 h
  % Gemcitabine released in citrate buffer: 4.92%
[4]; 8 h
  % Gemcitabine released in citrate buffer: 5.61%
[4]; 10 h
  % Gemcitabine released in citrate buffer: 5.39%
[4]; 12 h
  % Gemcitabine released in citrate buffer: 5.94%
[4]; 24 h
  % Gemcitabine released in citrate buffer: 7.53%
[4]; 26 h
  % Gemcitabine released in citrate buffer: 7.52%
[4]; 28 h
  % Gemcitabine released in citrate buffer: 7.75%
[4]; 30 h
  % Gemcitabine released in citrate buffer: 7.71%
[4]; 32 h
  % Gemcitabine released in citrate buffer: 7.48%
[4]; 34 h
  % Gemcitabine released in citrate buffer: 7.72%
[4]; 36 h
  % Gemcitabine released in citrate buffer: 8.19%
Plasma release study; 0 h
  Human Plasma % release: 1.81%
Plasma release study; 2 h
  Human Plasma % release: 3.73%
Plasma release study; 4 h
  Human Plasma % release: 6.31%
Plasma release study; 6 h
  Human Plasma % release: 17.74%
Plasma release study; 24 h
  Human Plasma % release: 34.83%
Plasma release study; 30 h
  Human Plasma % release: 37.86%
